From patent US8883967B2, “Branched amphipathic oligo-peptides that self-assemble into vesicles” (Kansas State University Research Foundation, priority 2009, dated 2014)
No end group written: not given here.

How the values were obtained:
[1] = tested on: Human Lens Epithelial (HLE) cells; experiment: Uptake of 5,6-carboxyfluorescein-loaded peptide vesicles by cells, fluorescence microscopy; type: cell-based; settings: 12 hours of incubation, 37° C.
Protocol: Human Lens Epithelial (HLE) cells were obtained from Dr. Dolores Takemoto's lab (Kansas State University). These adherent cells were grown to roughly 80% confluence on coverslips placed in 12 well plates with 1 ml Dulbecco's Modified Eagle Medium (DMEM), Stock solutions of bis(h9)-K-K4 and bis(h5)-K-K4 dissolved in DDI water were mixed together using the protocol described in Example 4 to achieve a final concentration of 0.025 mM of each peptide in the mixture and 600 μL final volume. The sample was then dried by spinning in a speed vacuum for about 3 hours until almost all of the solvent was removed. The dried sample was then rehydrated with a 0.5 mM solution of the fluorescent dye 5,6-carboxyfluorescein (MW=376.3 Da) dissolved in DDI water. The pH of the sample was adjusted to 7.4 using a dilute solution of NaOH. Next, 500 μL of the DMEM was replaced with the peptide vesicle solution loaded with 5,6-carboxyfluorescein. The cells were then allowed to grow at 37° C. under 5% CO2. At 4 hours and 12 hours after incubation with dye-loaded vesicles, the cells were washed twice with phosphate buffered saline (PBS) and fixed using 0.4% paraformaldehyde. The fixed cells were then mounted on a glass slide and pictures were taken using a fluorescence microscope. […]

[2] = Confocal microscopy of vesicles in 5,6-carboxyfluorescein solution; type: physicochemical; settings: single peptide alone
Protocol: About 25 μL of the sample was then mounted on a glass slide and covered with a coverslip and sealed. The slides were allowed to sit for 48-72 hours before pictures were taken using a confocal microscope. Upon sitting in the unbuffered 5,6-carboxyfluorescein solution for 48 hours, larger spherical entities than observed with TEM are formed, which can be seen with the light microscope. Specifically, in FIG. 7, peptides bis(h5)-K-K4 and bis(h9)-K-K4 at a 1:1 molar ratio when added to DDI water form larger vesicles on the order of 2-10 μm in diameter. […] The vesicles in this figure are large enough to have fluorescently-labeled peptide aggregates trapped within the vesicles.

[3] = linear peptides, low and neutral pH; cited from earlier work
[4] = Sedimentation analysis (analytical ultracentrifugation), N-acetyl capped peptides; type: physicochemical; settings: 1 mM, DDI water, pH 7, 40,000 rpm, 20° C.
Protocol: In this procedure, N-acetyl capped peptides were prepared using the protocol described in Example 1 above and subjected to analytical ultracentrifugation for sedimentation analysis. Three different samples were prepared from bis(h5)-K-K4 alone, bis(h9)-K-K4 alone, and a 1:1 molar ratio mixture of the two peptides, each with a final peptide concentration of 1 mM dissolved in DDI water and pH adjusted to 7 using a dilute solution of NaOH. For the analyses, 350 μL of each sample was loaded into a Beckman XL-I Analytical Ultracentrifuge cell and spun at 40,000 rpm for 3 hours at 20° C., with data collected using interference optics. The raw data was then processed using DCDT+2.2.1 software to obtain g(s*) distribution. Theoretical distribution (sum of individual peptide distribution) was obtained using OriginLab v. 7.0 software.

## 5,6-carboxyfluorescein [free fluorescent dye]
[1]
  cellular uptake of dye: hardly any uptake of the dye

## bis(h9)-K-K4: Branched amphipathic peptide: two FLIVIGSII (SEQ ID NO: 3) tails on a branch lysine, KKKK C-terminal carboxyamide
[2]
  ability of the peptide by itself to form vesicle structures: able to form these vesicle-like structures
  stability of vesicle-like structures formed by the peptide alone: somewhat unstable and rapidly fuse to produce the larger structures

## KKKFLIVIGSIIKKK [Linear … flanked by three lysine groups, from earlier studies (US 2009/0105449)]
[3]
  vesicle formation: do not form vesicles

## N-acetyl capped bis(h9)-K-K4: bis(h9)-K-K4 with the N-termini of both hydrophobic tails capped with an acetyl group (chain 1 Ac-FLIVIGSIIKKKKK-NH2; chain 2 Ac-FLIVIGSII; also: branched: chain 2 tail attached to branch lysine K10 of chain 1, linkage amine not given here)
[4]
  apparent S value: ~10 S

## bis(h5)-K-K4: Branched amphipathic peptide: two FLIVI (SEQ ID NO: 4) tails on a branch lysine, KKKK C-terminal carboxyamide
[2]
  ability of the peptide by itself to form vesicle structures: unable to form these structures

## N-acetyl capped bis(h5)-K-K4: bis(h5)-K-K4 with the N-termini of both hydrophobic tails capped with an acetyl group (chain 1 Ac-FLIVIKKKKK-NH2; chain 2 Ac-FLIVI; also: branched: chain 2 tail attached to branch lysine K6 of chain 1, linkage amine not given here)
[4]
  apparent S value: around 6 S

## KKKFLIVIKKK [Linear FLIVI flanked by three lysine groups, from earlier studies (US 2009/0105449)]
[3]
  vesicle formation: do not form vesicles
